The results in this text go back to US20200079844A1.

The target of test [1] is human TNFα (human) (UniProt P01375). In words: cell-based or functional assay.
Test [2] has as its target rhesus TNFα (rhesus) (UniProt P48094).
The target is the same in test [3]. In words: cell-based or functional assay.
Test [4] shares this target. This is another data set of the same source.
For test [5], the target named is human TNFα (human) (UniProt P01375). In words: cell-based or functional assay. This is another data set of the same source.

Where two headings read alike, the source gives them in different places.

Chain of human TNFα (human) (P01375 77-233 limits assumed): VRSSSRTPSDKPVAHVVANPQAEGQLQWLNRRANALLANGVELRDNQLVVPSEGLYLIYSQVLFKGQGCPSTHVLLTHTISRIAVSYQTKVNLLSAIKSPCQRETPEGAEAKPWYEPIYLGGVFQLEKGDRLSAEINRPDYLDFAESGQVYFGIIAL
Chain of rhesus TNFα (rhesus) (P48094 77-233 limits assumed): as the sequence (P01375 77-233 limits assumed) above, with R44T, T72N, R138L counted along it

In the test with human TNFα (human) [1], ALX0071 showed an IC50 in pM; TNFα-induced IL-6 production by RA synovial fibroblasts, donor DS534 P4 of 132 pM; an IC50 in pM; TNFα-induced IL-6 production by RA synovial fibroblasts, donor DS592 P4 of 363 pM; an IC50 in pM; TNFα-induced IL-6 production by RA synovial fibroblasts, donor DS605 P3 of 427 pM; an IC50 in pM; TNFα-induced IL-6 production by RA synovial fibroblasts, donor KM05-179 P4 of 537 pM. In the test with human TNFα (human) [1], the p[IC]50; TNFα-induced IL-6 production by RA synovial fibroblasts, donor DS534 P4 was determined as 9.88; the p[IC]50; TNFα-induced IL-6 production by RA synovial fibroblasts, donor DS592 P4 was 9.44; the p[IC]50; TNFα-induced IL-6 production by RA synovial fibroblasts, donor DS605 P3 worked out at 9.37; the p[IC]50; TNFα-induced IL-6 production by RA synovial fibroblasts, donor KM05-179 P4 is 9.27.
The term EC50 (read off the curve) denotes the concentration needed to bring the measured effect to its halfway point. Higher therefore signals a need for much substance. Enbrel (Etanercept) (Fc fusion): the EC50 (read off the curve) with rhesus TNFα (rhesus) [2] was 0.01 nM. In the test with human TNFα (human) [1], the EC50 in nM (mean); L929s + Act D cytotoxicity assay, human TNFa @ 0.5 ng/ml was 0.009 nM; the EC50 in nM (mean); L929s + Act D cytotoxicity assay, human TNFα @ 0.5 ng/ml came out at 0.009 nM; the EC50 in nM; alphaKYM cell assay (10000 c/w), human TNFa @ 1 ng/ml came to 0.04 nM; the IC50 in pM; TNFα-induced IL-6 production by RA synovial fibroblasts, donor DS534 P4 is 282 pM. In the test with human TNFα (human) [1], this substance gave an IC50 in pM; TNFα-induced IL-6 production by RA synovial fibroblasts, donor DS592 P4 of 324 pM; an IC50 in pM; TNFα-induced IL-6 production by RA synovial fibroblasts, donor DS605 P3 of 309 pM; an IC50 in pM; TNFα-induced IL-6 production by RA synovial fibroblasts, donor KM05-179 P4 of 309 pM; a p[IC]50; TNFα-induced IL-6 production by RA synovial fibroblasts, donor DS534 P4 of 9.55. In the test with human TNFα (human) [1], the p[IC]50; TNFα-induced IL-6 production by RA synovial fibroblasts, donor DS592 P4 turned out to be 9.49; the p[IC]50; TNFα-induced IL-6 production by RA synovial fibroblasts, donor DS605 P3 was determined as 9.51; the p[IC]50; TNFα-induced IL-6 production by RA synovial fibroblasts, donor KM05-179 P4 was 9.51. In the test with rhesus TNFα (rhesus) [3], the EC50 in nM (mean); L929s + Act D cytotoxicity assay, rhesus TNFa @ 0.5 ng/ml was determined as 0.009 nM and the EC50 in nM (mean); L929s + Act D cytotoxicity assay, rhesus TNFα @ 0.5 ng/ml was 0.009 nM.
Humira (Adalimumab) (antibody) came in with an EC50 (read off the curve) in the test with rhesus TNFα (rhesus) [4] of 0.1 nM. This substance also came in with a 50% effective concentration (EC50 (read off the curve)) with rhesus TNFα (rhesus) [2] of 0.09 nM. In the test with human TNFα (human) [1], this substance returned an EC50 in nM (mean); cytotoxicity assay, human TNFα of 0.141 nM and an EC50 in nM; alphaKYM cell assay (10000 c/w), human TNFa @ 1 ng/ml of 0.103 nM. Also, in the test with rhesus TNFα (rhesus) [3], the EC50 in nM (mean); L929s + Act D cytotoxicity assay, rhesus TNFa @ 0.5 ng/ml stood at 0.071 nM and the EC50 in nM (mean); L929s + Act D cytotoxicity assay, rhesus TNFα @ 0.5 ng/ml is 0.071 nM. This substance yielded an EC50 in nM (mean); cytotoxicity assay, human TNFα in the test with human TNFα (human) [5] of 0.127 nM.
Remicade (Infliximab) (antibody): in the test with rhesus TNFα (rhesus) [3], the EC50 in nM (mean); L929s + Act D cytotoxicity assay, rhesus TNFa @ 0.5 ng/ml was above 6.7 nM and the EC50 in nM (mean); L929s + Act D cytotoxicity assay, rhesus TNFα @ 0.5 ng/ml was above 6.7 nM.
